The record followed here is the NTF2 design screens of Basanta et al. (2020).

A short description of this series: protease stability score; higher = more stable; yeast display proteolysis, trypsin and chymotrypsin.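 Also: relative to predicted unfolded state with 0 unfolded-like and 1 meaning tenfold more protease.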
Sequence “DEETRHAREMMRIIAESLHTGDEDRLLEMIDPNVRVHVDGQDYHGREQWFQYLHEELRHLRIKHLTVTHHKVYDGRVELHLRVHGEVNGRHTEKTFIVIILKVDGRWKIESLRIE” showed a protease stability score of 2.15.
For “DEETRMSEHAERLLIRSIRTGDFEEITRLADPHVRVHIGDKDIHGRESLSEVLEKTMRKFGVDNVDYKIEDSHTYDGRIDIRGRLEVNGVKREVRFHSLKIDGRWLLTHVEMD” the value was -0.04.
The figure for “DEEVAKKMMEAWMKALQNGNDEQMKKLYDPTVRWEDGNTEKQGLEVVVKLVQTVKKKGIEFQVRKAKVKGNQVEVHYDMKVGDDTVTFTVQFRAQGGRIQEVRVEISEEARKAVKKG” is 1.32; for “DEEYDIAEEILHLLVELILTGDEHEILRYADPNVRLIIGDKDIHGMDWVSRFNMHLRLDDMKWELKRAHVYNGVIDNRGHLVMHGEIDGRHDTIKRETRILINKVNGRWNIREILIH” it is 0.653; for “DEEYESMKIAVERLVQAHKTGDEDFLRELADPHVRVEIGDKRMHGWDRFDEWFKFVHHHLRIKDVDMKEFHIQGNKMHVRLELHGHYNGRDLILERHVILLKVNGRWILHVVQLG” it is 2.3.
On to “DEFEEAIKLVDDIRSFALLTGDEKELKHMADPNVKLDFNGVELVGMERVWKFFEEIRLVERHVHIKDRDVQGDKVRVDGRQDIEVQQGDKKSRMDIRLDIIIKKVDGRWIVHSLVLI”, for which the protease stability score is 0.77.
The figure for “DEFEKDFRFAIEEWLKVVRTGDEDRAHELMDPDVKLDIGDKRHHGREEMLHHVRRADVIHDYKIKDLKFQGNYITVQGEVDGQIGDKRIRTEVRVIILKIDGVWLWRQNYER” is 0.907.
The figure for “DEFEKTAEELLRRLVKNMKTGNEDMISHLLDPNARLEVGEFEYHGREQLVRFLVHLRVDHVDLHHVEVQGDKLILDTRTDGTFNGRRRNIRETIIIRKVNGKWIIESYHVE” is 1.46.
“DEFHELARHALKLFKDTMDTGDEHTLEHLVDPNVRLLVDGQEIHGREAMEEFWRRVPNLRLYFHDVRVIGDKIIVDGKIEYGDKEIDSRIYLRKINGRWRFESVELR” yielded a protease stability score of 1.4.
“DEFHHLLELFLKLLAEQSRTGDEDSFERLFDPNVRVDINGRELHGWEAYQETRDRLGIERFDLRRIHSHTVNVVNGQVHMDMRTDGVIGDKRIDRTIHIRTTKINGRWFFTHLEWE”: the protease stability score stood at 0.578.
In turn, “DEFHHSVELAIRIIFEILRTGDEHHMDTMADPDVRIIIGDKHNVGRELVKDVMRRLVTEWRIRHWEIKNSHLIGDKLLVDSHVEVEVGDFNLRTDVHLVFTKINGRWTLHSHHID” returned a protease stability score of 1.09.
For “DEFHHWYERVIQEFDHAVETGNEHRIRELLDPNVRIIIDGQDLHGREDMIHLISEIRVSITDRRERSFRPVGDKINLLMRVDQQVFVDGQTEQVDTEVRWIIIKVNGVWLIRRIEVI” the value was 1.47.
The figure for “DEFKELTTEFIKQFLDNIRTGNEELLRELADPHVRFLVNGRELHGRESFVETFRHWRMKDWEIRDVEVYGEKLVMDGHVRVNIDGREDSVRVRLYVDKIDGQWHHRRFEFN” is 1.76.
The figure for “DEFNEATRRALHEEMKTRHTGDEDLFHRLADPDVRVIYGDKHIHGREEVVHWLREIRVKTHHLEIRRSHFQGEKAHVDGKLNGDFIFDGRTFTVQIHVEFIMIKWNGQWRIEMLRFE” is 1.09.
With “DEFQHMAELASTLFQRSNHTGDEHSLQEMLDPNVRVIVGDKEFHGMEELLKTLRKELEILGVQRIETEVHQVNVQGNKINVDLILHVNGRERRIHLWAHKINGRWITERIEVR”, the protease stability score amounted to 0.922.
“DEFREIIRRAMEIYRHSERTGDEDTIREMVDPDVKLDIDGKEIVGWERLLEFLTRVDHIHLHLNNMKLQGDYVIHDGELRLNIDGRNISTRIVIIAEKVNGRWHMKHVEFR” came in with a protease stability score of 1.24.
For “DEFRKDADRALHMFEDKIRTGNWRELDKLLDPHVRFEYGDKIHHGREQFKYFMDRYDHITARDHKIDHVEFQGDYLHMDTTVDGELFIDGKNIRIVNKSKLVLLKVNGRWTMHFLSHD” the value was 0.818.
For “DEFRRDALETHEDEIRDYLTGDWKSSKHLADPHARFVVGDKHYHGWHEMVRLVKENQEKFGIDHSEFRIHDSHVQGNKVIMDVEIHLTFNGKKIHTRSTILLVKINGVWLNTEIHID” the value was 0.072; for “DEFTELTREVLHRIVTHLRTGNEEELARLMDPNARLEINGKEFHGREEILRLIHELEKKMGIKHVDMVIRRDTIIGDYARVNGEIIIIVDGKEIRLDTEIFILKIDGKWFIRTESIR”, 1.21.
For “DEHDEFLEISFKILKKTDDTGDERESRKLADPDARLHVNGVDFHGWEDFKKIMVDLGWRIEEIRIEHIRLVGDKIIIHERVRLRVGDKKRDLHFTIIALKINGRWHLRELHIE” the value was 1.38; for “DEHDEHYHRLMKVLVDMMATGDWRTIHELMDPDARSDIDGREVHGREEVIRVIKEFFDKFKGARIEIRLRRWDTINGRIDVRVQLDVNFNGRTEQYDTRIHNVVVDGVSEELTVEVK”, 1.39; for “DEHDELIERIARIYFEDELTGDWDSMMRLMDPRTRDDYNGKERHGWEEVETFFEELRKKFKGMKFHLEHLDVIGNKVHIIARWNVNGRHVQVHIDIIAFDGRVKSFSERVDIR”, 1.15.
In turn, “DEHDEMSQIASEILRTVIETGNENELERMVDPHVKSIVNGRTHHGRETLSELKKKLGWERVHNRIHHVEIVGDKVVVRGSIHWNGRDVRVEFIITKVDGRWIIEEIRFH” gave a protease stability score of 1.07.
On to “DEHDERMESVLRHLWHNWKTGDEDRLAELADPNTRTNINGKNFHGWEYMVREFSRFLKHIRIQDLKIRDFRVIDGRAISDVIVHGEVDGKDIDVKTRVELIIINGRFHTLSFTFE”, for which the protease stability score was determined as 1.3.
The figure for “DEHDERQHKIHRRFFEAYMTGNEDEMLQLADPNVRLHIGDKDLIGRELFSTWVRELHDRFPGMRIHIEDEDIQGEKSHHRVRIHVDGVTRNVRINQDWYNGRLREMSIDIR” is 0.353; for “DEHDESVRTAWEYYKRVIETGDEDISKKLADPHMKFEFENHSIHGWENIYRELTRLMREMRIHHVEIEHFRVYGDFVEIHIRVDGTVNGRRIITKMDLYITKIDGKWYLHSRRIE” it is 0.543; for “DEHDEYLHHLLKVLWELIMTGDEHTFERLADPNVRLEVGNYFHVGRENIREMWKFLHDLLGVDHFRLHIRDLRVFNGVADAEYELRLNQGDKETRIEVRIYVHIVNGVLKSIRIETH” it is 1.44.
The figure for “DEHDHILKRLSEELLHMMETGDEDALAELFDPHARMEYNGQEIHGRRDVERIRREILEKLGVDKIHTEVKEERFVGEKLEVHTHLHVDGVHFTVRIHWVKFNGRWVIRTLHIE” is 1.38; for “DEHDKETKEMLERFLEATETGNEKHSEELFDPRTRMEFDGVEIHGRETITKILTELWERADHIQFVLHDLRLVDGRVELDMRIRLHYDGQEYRRRSKVLLWKIDGRWVIRSERYE” it is 1.99.
The figure for “DEHDKFVEEMARRHIRNLVTGDWEEQSRLMDPHVRIEIDINGRKREYHGREDWKYWLDELKRQFDHYEVRLRDFRIQGEYALFRLEESYIIGDKVIEQETELHIDVFNGRIRRVSFSVK” is 0.956.
On to “DEHDKHVHEMAERIMRSWHTGDEDTFHKMADPNVRVEIFVNGKNIIRHGREVWKHELERYDHVELRIKSMDAQGDFVHIDGELTINIGDKKHSTTLRIELEFINGRLKRISVHIH”, for which the protease stability score came to 1.05.
For “DEHDKLLKELSERMFELWETGDEDRLHKLADPHALSRVGEFSIHGMRNHMEWLREWLRRVKNATIHVRDVDLQGNKSRFDHELIIDGVELKVIDNIVLVNGRIKEIRIEIN” the value was 0.027; for “DEHDKLMKDIAKLLLELWKTGDEEIFQHLMDPDTRMDVNGVQLHGMELIVKILRDEIHKIKNVKVLDKRNTVIGDKIHLDVEIVIGDKRIRMKLDVIVVNGRIKVFEIHTE”, 1.36.
For “DEHDQHLKEWLDILLEVISTGDESRLQEMLDPNARLDVNGRKIHGRDEVLRAFHDHLDRFDHLHDLRIEHSNTVDGKAYIEGRDDGVVDGKRVFLRTRYFIITVNGKVHEVKIEID” the value was 1.92.
